B1: HDV Ribozyme (parent)
chain: GGCCGGCAUGGUCCCAGCCUCCUCGCUGGCGCCGGCUGGGCAACAUUCCGAGGGGACCGUCCCCUCGGUAAUGGCGAAUGGGACCCA

Variants of: B1
Assay: self-cleavage, relative activity (ratio to wild type); higher = more cleavage; co-transcriptional

Variant | self-cleavage
GGCCGGCAUGGUCCCAGCCUCCUCGCUGGCGCCGCCUGGGCAACAUUCCGAGGAGACCGUCCCCUCGGUAAUGGCGAAUGGGACCCA [G35C G54A] | 0.151
GGCCGGCAUGGUCCUAGCCUCCUCGCUGGCGCCGGCUGGGCAACAUUCCGAGGGGACAGUCCCCUCGGUAAUGGCGAAUGGGACCCA [C15U C58A] | 0.997
GGCCGGGAUGGUCCCAGCCUCCUCGCUGGCGCCGGCUGUGCAACAUUCCGAGGGGACCGUCCCCUCGGUAAUGGCGAAUGGGACCCA [C7G G39U] | 0
GGCCGGCAUGGUCCCAGCCUCCUCGCUGGCGCCGGCUGGGCAACAUUCCGAUGGGCCCGUCCCCUCGGUAAUGGCGAAUGGGACCCA [G52U A56C] | 0.815
GGCCGGCAUGGUCCCAGCCUCCUCGCUGGCGCCGGCUGGGCAACGUUCCGAGGGGACCGUCCCCUCGGUAAUGGCGAAUGGGAACCA [A45G C84A] | 0.587
GGCCGGCAUGGUCCCAUCCUCCUCGCUGGCGCCGGCUGGGCAACAUUCCGAGGGGACCGUCCCCACGGUAAUGGCGAAUGGGACCCA [G17U U65A] | 0.415
GGCCGGCAUGGUCCGAGCCUCCUCGCUGGCGCCGGCUGGGCAAUAUUCCGAGGGGACCGUCCCCUCGGUAAUGGCGAAUGGGACCCA [C15G C44U] | 0.434
GGCCGGCAUGGUCCCAGCCUCCUCGCUGGCGCCGGCUGGGCAACAUUCCGAGAGGACCGUCCCCUCGGUAAUGGCGAAUGGGGCCCA [G53A A83G] | 0.802
GGCCGGCAUGGUCCCAGCCUCCUCGCUGGCGCCGGCUGGACAACAUUCCGAGGGGACCGUCCCCUCGGUAAUGGCGAAUCGGACCCA [G40A G80C] | 0.161
UGCCGGCAUGGUCCCAGCCUCCUCGCUGGCGCCGGCUGGGCAGCAUUCCGAGGGGACCGUCCCCUCGGUAAUGGCGAAUGGGACCCA [G1U A43G] | 0.147
GGCCGGCAUGUUCCCAGCCUCCUCGCUGGCGCCGACUGGGCAACAUUCCGAGGGGACCGUCCCCUCGGUAAUGGCGAAUGGGACCCA [G11U G35A] | 0.241
GGCCGGCAUGGUCCCAGCCUCCUCGCUGGCGCCGGCUGGGCGACAUUCCGAGGGGACCGUCCCCUCGGUAAUUGCGAAUGGGACCCA [A42G G73U] | 0.147
GGCCGGCAUGGUCCCAGCCUCCUCGCCGGCGCCGGCUGGGCAACAUUCCGAGGGGACCGUCCCCUCUGUAAUGGCGAAUGGGACCCA [U27C G67U] | 0.798
GGCCGGCAUGGUCCCAGCCUCCUCGCUGGCGCCGGCUGAGCAACAUUCCGAGGGGACCAUCCCCUCGGUAAUGGCGAAUGGGACCCA [G39A G59A] | 0.426
GGCCGGCAUGGUCCCAGCCUCCUCGCUGGCGCCGGCUGAGCAACAUUCCGAGGGGACCGUCCCCUCGGUAAUGGCGACUGGGACCCA [G39A A78C] | 0.0563
GGCCGGCAUGGUCCCAGCCUCCUCGCUGGCGCCGGCUUGGCAACAUUCCGAGGGGACCGUCCCCUCCGUAAUGGCGAAUGGGACCCA [G38U G67C] | 0.197

Variant | self-cleavage
GGCCGGCAUGGUCCCAGCCUCCUCGCUGGCGCCGGCUGGGCAACAUUCCGAGCGGACCGACCCCUCGGUAAUGGCGAAUGGGACCCA [G53C U60A] | 1.15
GGCCGGCAUGGUCCCAGCCUCCUCGCUGGCGCCGGCUGGGCAACAUUCCGAGGGGACUGUCCCCUCGGUCAUGGCGAAUGGGACCCA [C58U A70C] | 0.831
GGCCGGCAUGGUCCCAGCCUCCUCGCUGGCGCCGGCUGGGCAACAUUCCGAGGGGACCGUCCACUCGGUAAUGCCGAAUGGGACCCA [C63A G74C] | 0.312
GGCCGGCAUGGUCCCAGCCUCCUCGCUGGCGCCGGCUGGUCAACAUUACGAGGGGACCGUCCCCUCGGUAAUGGCGAAUGGGACCCA [G40U C48A] | 0.76
GGCCGGCAUGGUCCGAGCCUCCUCGCUGGCGCCGGCUGGGCAACAUUCCGAGGGGACCGUCGCCUCGGUAAUGGCGAAUGGGACCCA [C15G C62G] | 0.237
GGCCGACAUGGUCCCAGCCUCCUCGCUGGCGCCGGCUGCGCAACAUUCCGAGGGGACCGUCCCCUCGGUAAUGGCGAAUGGGACCCA [G6A G39C] | 0.0415
GGCCGGCAUGGUCCCAGCCUCCUCGCUGGCGCCGGCUGGGCAACAUUCCGAGGGGACCGUGCCCUCGGUAAUGGCGAAUGUGACCCA [C61G G81U] | 0.358
GGCUGGCAUGGUCCCAGACUCCUCGCUGGCGCCGGCUGGGCAACAUUCCGAGGGGACCGUCCCCUCGGUAAUGGCGAAUGGGACCCA [C4U C18A] | 0
GGCCGGCAUGGUCCCAGCCUCCUCGCUGGCGCCGGCUGGGCAACAUUCCGAGGGGACCGUCACCUCGGUAAUGGCGAAUGGGACACA [C62A C85A] | 0.767
GGCCGGCAUGGUCCCAGCCUCCUCGCUGGCGCCGGCUGGGCUACAUUCCGAGGGGACCGUCCCCUCGGUAAUGGCGAAUGGUACCCA [A42U G82U] | 0.102
GGCCGGCAUGGUCCCAGCCUCCUCGCUGGCGCCGGCUGGGCAACAUUCCGAGGGGACCGUCCCCUCGGUAAGGGCGAAUGGGUCCCA [U72G A83U] | 0.166
GGCCGGCAUGGUCCCAGCCUCCUCGCUGGCGCCGGCUGGGCAAAAUUCCGAGGGGACCGUCCCCUCGUUAAUGGCGAAUGGGACCCA [C44A G68U] | 0.554
GGCCGGCAUGGUCCCAGCCUCCUGGCUGGCGCCGGCUGGGCAACAUUCCGAGGGGACCGUCCCCUCGGUAAUGGCGAAUGUGACCCA [C24G G81U] | 0.0707
GGCCGGGAUGGUCCCAGCCUCCUCGCUGGCGCCGGCUGGGCAACAUUCCGAGGGGACCGUCCCCUCGGUUAUGGCGAAUGGGACCCA [C7G A70U] | 0.475
GGCCGGCAUGGUCCCAGCCUCCUCGCUGGCGCCGGCUGGGCAACAUUCCGAGGGGACCGUCCCCUCGGUAAUGCCGAAUGGGACCCG [G74C A87G] | 0.291
GGCCGGCAUCGUCCCAGCCUCCUGGCUGGCGCCGGCUGGGCAACAUUCCGAGGGGACCGUCCCCUCGGUAAUGGCGAAUGGGACCCA [G10C C24G] | 0
